B1: GLUE8: Arabidopsis sugar transporter protein expressed in the tapetum, paralog of SWEET1 (protein, UniProt Q8LFH5 1-239, looked up)
Bidirectional sugar …: MVDAKQVRFIIGVIGNVISFGLFAAPAKTFWRIFKKKSVEEFSYVPYVATVMNCMLWVFYGLPVVHKDSILVSTINGVGLVIELFYVGVYLMYCGHKKNHRRNILGFLALEVILVVAIILITLFALKGDFVKQTFVGVICDVFNIAMYGAPSLAIIKVVKTKSVEYMPFLLSLVCFVNAGIWTTYSLIFKIDYYVLASNGIGTFLALSQLIVYFMYYKSTPKEKTVKPSEVEISATERV
B2: GLUE13: Arabidopsis GLUE/SWEET sugar transporter protein (protein, UniProt Q9FGQ2 1-294, looked up)
Bidirectional sugar …: MALTNNLWAFVFGILGNIISFVVFLAPVPTFVRICKKKSTEGFQSLPYVSALFSAMLWIYYAMQKDGTAFLLITINAFGCVIETIYIVLFVSYANKKTRISTLKVLGLLNFLGFAAIVLVCELLTKGSTREKVLGGICVGFSVSVFAAPLSIMRVVVRTRSVEFMPFSLSLFLTISAVTWLFYGLAIKDFYVALPNVLGAFLGAVQMILYIIFKYYKTPVAQKTDKSKDVSDHSIDIAKLTTVIPGAVLDSAVHQPPALHNVPETKIQLTEVKSQNMTDPKDQINKDVQKQSQV
B3: GLUE4: Arabidopsis GLUE/SWEET sugar transporter protein (protein, UniProt Q944M5 1-251, looked up)
Bidirectional sugar …: MVNATVARNIAGICGNVISLFLFLSPIPTFITIYKKKKVEEYKADPYLATVLNCALWVFYGLPMVQPDSLLVITINGTGLAIELVYLAIFFFFSPTSRKVKVGLWLIGEMVFVGIVATCTLLLFHTHNQRSSFVGIFCVIFVSLMYIAPLTIMSKVIKTKSVKYMPFSLSLANFLNGVVWVIYALIKFDLFILIGNGLGTVSGAVQLILYACYYKTTPKDDEDEEDEENLSKVNSQLQLSGNSGQAKRVSA
B4: GLUE7: Arabidopsis GLUE/SWEET sugar transporter protein (protein, UniProt Q8LBF7 1-258, looked up)
Bidirectional sugar …: MVFAHLNLLRKIVGIIGNFIALCLFLSPTPTFVRIVKKKSVEEYSPIPYLATLINCLVWVLYGLPTVHPDSTLVITINGTGILIEIVFLTIFFVYCGRQKQRLIISAVIAAETAFIAILAVLVLTLQHTTEKRTMSVGIVCCVFNVMMYASPLSVMKMVIKTKSVEFMPFWLSVAGFLNAGVWTIYALMPFDPFMAIPNGIGCLFGLAQLILYGAYYKSTKRIMAERENQPGYVGLSSAIARTGSEKTANTNQEPNNV
B5: GLUE5: Arabidopsis GLUE/SWEET sugar transporter protein (protein, UniProt Q9FM10 1-240, looked up)
Bidirectional sugar …: MTDPHTARTIVGIVGNVISFGLFCAPIPTMVKIWKMKSVSEFKPDPYVATVLNCMMWTFYGLPFVQPDSLLVITINGTGLFMELVYVTIFFVFATSPVRRKITIAMVIEVIFMAVVIFCTMYFLHTTKQRSMLIGILCIVFNVIMYAAPLTVMKLVIKTKSVKYMPFFLSLANFMNGVVWVIYACLKFDPYILIPNGLGSLSGIIQLIIYITYYKTTNWNDDDEDKEKRYSNAGIELGQA
B6: GLUE16: Arabidopsis GLUE/SWEET sugar transporter protein (protein, UniProt Q9LUR4 1-230, looked up)
Bidirectional sugar …: MADLSFYVGVIGNVISVLVFLSPVETFWRIVQRRSTEEYECFPYICTLMSSSLWTYYGIVTPGEYLVSTVNGFGALAESIYVLIFLFFVPKSRFLKTVVVVLALNVCFPVIAIAGTRTLFGDANSRSSSMGFICATLNIIMYGSPLSAIKTVVTTRSVQFMPFWLSFFLFLNGAIWGVYALLLHDMFLLVPNGMGFFLGIMQLLIYAYYRNAEPIVEDEEGLIPNQPLLA
B7: GLUE14: Arabidopsis GLUE/SWEET sugar transporter protein (protein, UniProt Q9SW25 1-281, looked up)
Bidirectional sugar …: MVLTHNVLAVTFGVLGNIISFIVFLAPVPTFVRICKKKSIEGFESLPYVSALFSAMLWIYYALQKDGAGFLLITINAVGCFIETIYIILFITYANKKARISTLKVLGLLNFLGFAAIILVCELLTKGSNREKVLGGICVGFSVCVFAAPLSIMRVVIRTKSVEFMPFSLSLFLTISAITWLFYGLAIKDFYVALPNILGAFLGAVQMILYVIFKYYKTPLVVDETEKPKTVSDHSINMVKLSSTPASGDLTVQPQTNPDVSHPIKTHGGDLEDQMDKKMPN
B8: GLUE3: Arabidopsis GLUE/SWEET sugar transporter protein (protein, UniProt Q6NQN5 1-263, looked up)
Bidirectional sugar …: MGDKLRLSIGILGNGASLLLYTAPIVTFSRVFKKKSTEEFSCFPYVMTLFNCLIYTWYGLPIVSHLWENLPLVTINGVGILLESIFIFIYFYYASPKEKIKVGVTFVPVIVGFGLTTAISALVFDDHRHRKSFVGSVGLVASISMYGSPLVVMKKVIETRSVEYMPFYLSFFSFLASSLWLAYGLLSHDLFLASPNMVATPLGILQLILYFKYKNKKDLAPTTMVITKRNDHDDKNKATLEFVVDVDRNSDTNEKNSNNASSI
B9: GLUE17: Arabidopsis GLUE/SWEET sugar transporter protein (protein, UniProt Q84WN3 1-241, looked up)
Bidirectional sugar …: MAEASFYIGVIGNVISVLVFLSPVETFWKIVKRRSTEEYKSLPYICTLLGSSLWTYYGIVTPGEYLVSTVNGFGALVETIYVSLFLFYAPRHLKLKTVDVDAMLNVFFPIAAIVATRSAFEDEKMRSQSIGFISAGLNIIMYGSPLSAMKTVVTTKSVKYMPFWLSFFLFLNGAIWAVYALLQHDVFLLVPNGVGFVFGTMQLILYGIYRNAKPVGLSNGLSEIAQDEEEGLTSRVEPLLS

Test system: HEK293T cells
Test: Glucose transport by GLUE/SWEET coexpressed with FRET glucose sensor (cytosolic or ER) in HEK293T cells
Type: cell-based, human
Details: ER-targeted sensor FLIPglu600μΔ13V ER
Method: Individual cells were analyzed by quantitative ratio imaging of CFP and Venus emission (acquisition intervals 5 sec; Fc/D corresponds to the normalized emission intensity ratio). HEK293T/FLIPglu600μΔ13V cells were perfused with medium, followed by square pulses of increasing glucose concentrations. […] Cells coexpressing the sensor and SWEET1 accumulated glucose as evidenced by the negative FRET ratio change with an amplitude that correlates with the increasing external glucose supply (blue line). Data points are mean±SD (n>10).
The sensor FLIPglu600μΔ13V^ER was targeted to the lumen of the ER (analysis performed as under FIG. 9A, acquisition intervals 10 sec). […] Cells coexpressing the sensor and SWEET1 accumulated glucose in the ER as evidenced by the negative ratio change induced by perfusion with glucose. Data points are mean±SD (n>10).
By utilizing the above described HEK293T cell system, a novel class of Arabidopsis sugar transporters was identified that are involved in nectar production in plants and with all hallmarks of the glucose transport activity described in root tips. A screening assay was then initiated in which candidate transporter genes from Arabidopsis were coexpressed with the FRET glucose sensor in the HEK293T cell expression system.
FRET analysis. Cell culture, transfection, image acquisition and FRET analysis were performed as described previously.
To identify novel glucose transporters from the reference plant Arabidopsis, genes encoding uncharacterized polytopic membrane proteins from the plant membrane protein database Aramemnon, available on the internet at “aramemnon.botanik.uni-koeln.de”,—were screened using a mammalian expression system. Candidate genes were coexpressed with a high-sensitivity FRET glucose sensor (i.e. FLIPglu600μΔ13V) in human embryonic kidney HEK293T cells, which are characterized by low endogenous glucose uptake activity. […] To determine whether SWEET1 can also mediate efflux from the cytosol, we expressed the FRET glucose sensor FLIPglu600μΔ13V^ER in the lumen of the endoplasmic reticulum (ER; FIG. 9B). Topologically, uptake across the plasma membrane (PM) is initiated from the extracellular side of the carrier, while ‘export’ to the ER is initiated from the cytoplasmic side of the transporter (FIG. 9C). […] SWEET1 may thus function as a glucose uniporter, for which the direction of transport depends only on the glucose gradient across the membrane. […] Furthermore, the mRNAs levels of known human glucose transporters in the GLUT and SGLT families were not induced in HEK293T cells expressing SWEET1 (FIG. 12B). […] In support of a role in cellular uptake and efflux, a constitutively expressed SWEET1-YFP fusion localizes to the PM in Arabidopsis leaves (FIG. 9G). […] Other proteins, possibly related to SWEET1, may be involved in sugar transport in roots.

Row | Molecule | glucose efflux from cytosol into the ER
1 | B1 | ‘efflux’ glucose from the cytosol into the ER

Same assay, conditions: cytosolic FRET glucose sensor

Row | Molecule | glucose accumulation in cytosol (negative FRET ratio change)
2 | GLUE12: Arabidopsis GLUE/SWEET sugar transporter protein | function as glucose transporters with different activities
3 | B2 | function as glucose transporters with different activities
4 | B1 | function as glucose transporters with different activities

Same assay, conditions: cytosolic FRET glucose sensor, listed as SWEET8

Row | Molecule | glucose accumulation in cytosol (negative FRET ratio change)
5 | B1 | also functions as a uniporter

Test system: yeast strain YSL2-1
Test: Complementation growth assay of yeast strain YSL2-1/EBY4000 lacking all 18 hexose transporter genes
Type: cell-based
Details: 2% fructose
Method: Cells expressing yeast homolog, HXTS, or mammalian homolog, GLUT1, were used as controls. Os8N3 and RAG1AP1 were homologs from rice and mammalian. The yeast cells were grown in SD-Ura liquid medium with 2% maltose to early log phase and 5 m of serious dilutions were spotted on the media containing YPM or SD-URA containing 2% of maltose, fructose, or mannose. […]
(§1) Cells expressing yeast homolog, HXT5, or mammalian homolog, GLUT1, were used as controls. Os8N3 and RAG1AP1 were homologs from rice and mammalian. The yeast cells were grown in SD-Ura liquid medium with 2% maltose to early log phase and 5 m of serious dilutions were spotted on the media containing YPM or SD-URA containing 2% glucose.
as §1, with “various 2-Deoxy-glucose levels.” for “2% glucose.”
A modified version of the yeast strain EBY4000 (hxt1 through −17Δ::loxP gal2Δ::loxP stl1Δ::loxP agt1Δ::loxP ydl247wΔ::loxP yjr160cΔ::loxP) carrying a cytosolic invertase (YSL2-1) was transformed with SWEETs and HXTS and grown on SD (synthetic deficient) medium supplemented with 2% maltose and required auxotrophic markers. For complementation growth assays, cells were grown overnight in liquid minimum medium to OD600˜0.6 and then diluted to OD600˜0.2 using water. Serial dilutions (1×, 5×, 25×, and 125×) were plated on SD media containing either 2% maltose (as control) or 2% glucose and the relevant auxotrophic markers. Growth was documented by scanning (CanoScan, Canon) the plates after 2-5 days at 30° C.

Row | Molecule | complementation on fructose
6 | B3 | transport fructose
7 | B4 | transport fructose

Same assay, conditions: 2% glucose

Row | Molecule | complementation of yeast hexose transport mutant on glucose
8 | B3 | transport glucose
9 | B4 | transport glucose
10 | B1 | transport glucose
11 | B5 | transport glucose

Same assay, conditions: 2% glucose; listed as SWEET8/RPG1

Row | Molecule | complementation of yeast hexose transport mutant on glucose
12 | B1 | complements the yeast glucose transport mutant

Same assay, conditions: 2% mannose

Row | Molecule | complementation on mannose
13 | B3 | transport fructose and mannose
14 | B4 | transport fructose and mannose
15 | B1 | transport mannose
16 | B5 | transport mannose

Same assay, conditions: various 2-Deoxy-glucose levels

Row | Molecule | sensitivity to 2-deoxyglucose
17 | B3 | transport 2-deoxyglucose
18 | B6 | transport 2-deoxyglucose
19 | B4 | transport 2-deoxyglucose
20 | B7 | transport 2-deoxyglucose
21 | B8 | transport 2-deoxyglucose
22 | B9 | transport 2-deoxyglucose
23 | B1 | transport 2-deoxyglucose
24 | B5 | transport 2-deoxyglucose
